This test has as its target T1, Staphylococcal Enterotoxin B (SEB) (UniProt P01552 28-266).
T1 sequence: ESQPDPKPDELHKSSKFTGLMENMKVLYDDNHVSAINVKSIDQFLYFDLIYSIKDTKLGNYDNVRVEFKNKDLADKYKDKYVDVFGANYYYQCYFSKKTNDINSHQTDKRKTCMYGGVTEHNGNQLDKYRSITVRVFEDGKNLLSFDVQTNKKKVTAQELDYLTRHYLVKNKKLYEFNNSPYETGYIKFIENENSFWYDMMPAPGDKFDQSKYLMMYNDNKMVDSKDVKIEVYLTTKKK
In words: SPR (ProteON XPR36), antigen-coated chip.

B1: sdAb A3 (VHH)
VHH: EVQLVESGGGLVQAGDSLRLSCTASGRTFSRAVMGWFRQAPGKEREFVAAISAAPGTAYYAFYADSVRGRFSISADSAKNTVYLQMNSLKPEDTAVYYCAADLKMQVAAYMNQRSVDYWGQGTQVTVSS
Take B1: the binding result is recorded as “binds”.

The values are drawn from patent US20150203548A1 (GOVERNMENT OF THE UNITED STATES OF AMERICA AS REPRESENTED …, published 2015).
